# Data published in the DeepSol protein solubility set.
# Experiment: soluble on expression in E. coli; label from the status in PepcDB or PDB records
row,Sequence,soluble on expression in E. coli
1,MLFSLKYLGMTLVEQPKGEELSAAAIKRIVATAKASGKKLQKVTLKVSPRGIILTDNLTNQLIENVSIYRISYCTADKMHDKVFAYIAQSQHNQSLECHAFLCTKRKMAQAVTLTVAQAFKVAFEFWQVSKEEKEKRDKASQEGGDVLGARQDCTPPLKSLVATGNLLDLEETAKAPLSTVSANTTNMDEVPRPQALSGSSVVWELDDGLDEAFSRLAQSRTNPQVLDTGLTAQDMHYAQCLSPVDWDKPDSSGTEQDDLFSF,soluble
2,MSLADDHIYVTSSGGSFLENVRKHMAEPFEKQSGVKVTLVPGTNPAHALKILSSRGTPPYDVAAFGGNDMYRLIRAKKLAQVDEKSVPSLADVPEKFKADWEGCGSLYDYSSVGIAYRPDKIQGGVKSWKEFVERTVAGEFGKQVFFNNLSSNVRGAEVLSMFGKIYGSGYGDIEASIATLERMKPHIFKFFTAFNDPVVLLTSGEGAIGPGWDGRTFIAEDSTKGMVKWVDPTEGAVSSGPVMAVVKGGKEDLAKAFMNYALGEEAQKAFCEAMYYGAVNRKVQYSEKLKHRLPSIDSVQLVDTALLIKNMSALLDLWNKRIASEGHHHHHH,soluble
3,MSLYDNDLWFATINLPYRQKLELLRIYKTSDEILYNFKNSELIQKYKFDIEKINYIKDEMKKSGMKIVFWNDDDYPKVLKNYDDMPYGLFYMGNIKKLNELNYNVAIVGSRRCTQYGKDITTIISREISINGIGIISGMARGIDTYAHKICLENNGYTCAVLGCGADVIYPKENKNLYCQIIRNGCIISQYKPNTKPLPYNFPIRNKIISGLSNLVLVTEADIKSGSIITASSALEQGKDVGAVPGSVFSKMSRGTNKLIQDGAHVIKDIDDVFGILNFQKINFKKIRNNSSYSSMPENQRQIYDLVSDKPIHVDDIKRCLNIDIQELYELLFEMQLKNKILCLSGSYYVRVNDCLEGHHHHHH,soluble
4,SEGSASEVLKEWIVTGKKKNKKKKSKPKPASEASGSAPDSSKSAPIQEEQPASSEKGSINGYHVNGAINDAESVDSLSEGLETLSIDARELEDPEFAAAETLDRTGSVLENGVSDFEPKSLTAHSISNVQQSRNAAKSLSRTTPGAQVSNLGMENVPLSSTNKKLGSNIEKSVKDLQRCTVSLARYRVVVKEEMDASIKKMKQAFAELQSCLMDREVALLAEMDKVKAEAMEILLSRQKKAELLKKMTDVAVRMSEEQLVELRADIKHFVSERKYDEDLGRVARFTCDVETLKQSIDSFGQVSHPKNSYSTRSRCSLVAPVSLSGPSDGSAASSSPDASVPSLPGANKRNCAPREASAAMTNSSDRPCQAHREVFPGNRRGGQGYRAQSQKTADPSNPGRHDSVGRYRNSSWYSSGPRYQGVPPQAPGNAGERSRPYSAGTNGTGAISEPSPPKPSFKKGLPQRKPRASQAEAANS,not soluble
5,MSKPWLFTVHGTGQPDPLGPGLPADTARDVLDIYRWQPIGNYPAAAFPMWPSVEKGVAELILQIELKLDADPYADFAMAGYSQGAIVVGQVLKHHILPPTGRLHRFLHRLKKVIFWGNPMRQKGFAHSDEWIHPVAAPDTLGILEDRLENLEQYGFEVRDYAHDGDMYASIKEDDLHEYEVAIGRIVMKASGFIGGRDSVVAQLIELGQRPITEGIALAGAIIDALTFFARSRMGDKWPHLYNRYPAVEFLRQI,soluble
6,TEQKQKHMEQLSDKNGIISALAFDQRGALKRLMAKYQSEEPTVSQIEALKVLVAEELTPYASSMLLDPEYGLPATKVLDDNAGLLLAYEKTGYDTSSTKRLPDCLDIWSAKRIKEEGADAVKFLLYYDVDSSDEVNEEKEAYIERIGSECVAEDIPFFLEILSYDEKITDSSGIEYAKIKPRKVIEAMKVFSNPRFNIDVLKVEVPVNMDYVEGFAQGETAYNKATAAAYFREQDQATLLPYIFLSAGVPAQLFQETLVFAKEAGAKFNGVLCGRATWAGSVKEYVEKGEAGARQWLRTIGFQNIDELNKILQKTATSWKE,soluble
7,MAIIASTFGTGLSYAGELPFKPVTGGEVGRKQQRMVVVRAEGGGGINPEIRKNEDKVVDSVVVTELSKNITPYCRCWRSGTFPLCDGSHVKHNKANGDNVGPLLLKKQ,soluble
8,MGPQSDSRTLISTYSQQSFQQFSFEYCYHSNTPSLPFSAIFSLYWLLHPFSASTGFSKGPQSDYRTLISTYYQQSFQQFSFEYCYHSNTPSLVSLFFSHLQPFLAIFSHFQPFSASAGFSKGPQSDSRTLISTYSQQSFQQFSFEYCCLSNTRSLVSLF,not soluble
9,MGSDKIHHHHHHMEKIAVAENLRAYYFIKSGDKTTSIRAVDNVSLHFFENEVYGIAGESGCGKSTLLKVLFGEIKPPLKLVDGEVVFKLDGEEYRINSMSLDQLKKIRWKYVSYVPQGSMSVLNPVRKIRRIFLDVIEEHTSMSREEAFSRIESYFEALGLPVRVLDSYPHQLSGGMRQRVTIALATVLNPKVIFADEPTTALDVVVQRGVIQLLKKIHKEQKNTLVIVTHDMGVHAHLATRIGVMYAGRLIEEAETHEIFKNPLHPYTRFLINSLPRFGDRSRKEGTPGSPPSLANLPSGCPFHPRCPIADQICMEMEPDLIEVARNHKVACWKVGVER,not soluble
10,GPGSMSNAKNGSETTYFTAIANRDVEALKALIAQNRNVNEVAQDPVLYHRTPLHICVWENFVEGAKLLLDAGADVNALDDLHDSPYLLSGAEGRQEIMEHIYKNAERTMRYGSQTSLRMKTSVPDHSIVNRFGGSALIPACERGHVEMVRLLLQKGVDVNHYNYYHWTGLLEAIELGGDDREHVDIVRLLIENGADVNQVDGAGKTPLYLARKRKYKRIAALLEAAGGHE,soluble
11,MAHHHHHHMHSAALRRREEAAKSLAELEPEYAQIVADLPALEARKAAAEKEQEALWAELGMKQDESEAGLYESEFSDEATSCIRWCETGGCIGTGPRESHRDKSCSNVIDRDSSGYCECKTNDKKDEPEDDEEDVEPEAEGEGTEVRRGTVTYRFSSGHPRFTCMYVCDHSGEAGVDQQPEKLESFTILGELREASKSLERKKNRLEEVKGAMEAAKKLLSSPTITTEDLLRTLEKEEFTIDFQEYTYAIVMFDTVYQRDMGMTTGGNLLGLWKSFAENTYSVWAKDAHDLTQMIYDNGLKCWNGVVRNVEVHLVCGPENKLMTVEEPSMCNYRMVFETPAMCDD,soluble
12,MGSDKIHHHHHHMSSILRLDRLRQFIGELATLLDSRPDESTLLAQAHPLLAELVHQDDWLPEDCARPDPQRYQQYLLHVDSRQRFSVVSFVWGPGQITPVHDHRVWGLIGMLRGAEYSQPYAFDAGGRPHPSGARRRLEPGEVEALSPRIGDVHQVSNAFSDRTSISIHVYGANIGAVRRAVFSAEGEEKPFISGYSNSRLPNIWDLSKENPA,not soluble
13,GTIVITGTITDTTCVIEDPSGPNHTKVVQLPKISKNALKANGDQAGRTPFIIKLKDCPSSLGNGVKAYFEPGPTTDYSTGDLRAYKMVYATNPQTQLSNITAATEAQGVQVRISNLNDSKITMGANEATQQAAGFDPEVQTGGTSRTVTMRYLASYVKKNGDVEASAITTYVGFSVVYP,not soluble
14,GHMNVKLKVFHAGSLTEPMKAFKRAFEEKHPNVEVQTEAAGSAATIRKVTELGRKADVIATADYTLIQKMMYPEFANWTIMFAKNQIVLAYRNDSRYADEINSQNWYEILKRPDVRFGFSNPNDDPCGYRSLMAIQLAELYYNDPTIFDELVAKNSNLRFSEDNGSYVLRMPSSERIEINKSKIMIRSMEMELIHLVESGELDYFFIYKSVAKQHGFNFVELPVEIDLSSPDYAELYSKVKVVLANGKEVTGKPIVYGITIPKNAENRELAVEFVKLVISEEGQEILRELGQEPLVPPRADTAVPSLKAMVEVS,soluble
15,MGSDKIHHHHHHMHHSHHLEIYEKLREKLDKAPVGLPKTVSGVEKEILSVLFDEEEAKIAVHMPFIRFTAEQLAERTGKSLEYVEKILNEMAKKGTVWKGEKDGKTYYRLFPVIVGFAEMPFLAGPGRDARQEKLAPLWAKYRKEGFLDELGDREHAILRALPEKSTISKQSVILPYEDAEKLVRDRDYHAVGYCPCRIMARLIGEGCRHSLEVCLHFGSLGKYMVEHGYARRITADEAVEILRKSNREGLVHVTERSKGPISTICNCCSDCCAFFRAIHEAGHPKTIAHSSYVASVDSSKCIACGICMLRCPMKAVKAKINREPANVEAEKCLGCGVCVPTCPVEAIELVEREELQEWPDHLTYYQELLADRGKDPAGLF,not soluble
16,MTDTQVTWLTQESHDRLKAELDQLIANRPVIAAEINDRREEGDLRENGGYHAAREEQGQQEARIRQLQDLLSNAKVGEAPKQSGVALPGSVVKVYYNGDKSDSETFLIATRQEGVSDGKLEVYSPNSPLGGALIDAKVGETRSYTVPNGSTVSVTLVSAEPYHS,soluble
17,MSATSVDTQRTKGQDNKVQNGSLHQKDTVHDNDFEPYLTGQSNQSNSYPSMSDPYLSSYYPPSIGFPYSLNEAPWSTAGDPPIPYLTTYGQLSNGDHHFMHDAVFGQPGGLGNNIYQHRFNFFPENPAFSAWGTSGSQGQQTQSSAYGSSYTYPPSSLGGTVVDGQPGFHSDTLSKAPGMNSLEQGMVGLKIGDVSSSAVKTVGSVVSSVALTGVLSGNGGTNVNMPVSKPTSWAAIASKPAKPQPKMKTKSGPVMGGGLPPPPIKHNMDIGTWDNKGPVPKAPVPQQAPSPQAAPQPQQVAQPLPAQPPALAQPQYQSPQQPPQTRWVAPRNRNAAFGQSGGAGSDSNSPGNVQPNSAPSVESHPVLEKLKAAHSYNPKEFEWNLKSGRVFIIKSYSEDDIHRSIKYSIWCSTEHGNKRLDSAFRCMSSKGPVYLLFSVNGSGHFCGVAEMKSPVDYGTSAGVWSQDKWKGKFDVQWIFVKDVPNNQLRHIRLENNDNKPVTNSRDTQEVPLEKAKQVLKIISSYKHTTSIFDDFAHYEKRQEEEEVVRKERQSRNKQ,soluble
18,MNLIKEDMRVKVHMEGNVNGHAFVIEGEGKGKPYEGTQTANLTVKEGAPLPFSYDILTTAVHYGNRVFTKYPEDIPDYFKQSFPEGYSWERTMTFEDKGICTIRSDISLEGDCFFQNVRFKGTNFPPNGPVMQKKTLKWEPSTEKLHVRDGLLVGNINMALLLEGGGHYLCDFKTTYKAKKVVQLPDAHFVDHRIEILGNDSDYNKVKLYEHAVARYSPLPSQVWHHHHHH,soluble
19,MEESKTPHVAIIPSPGMGHLIPLVEFAKRLVHLHGLTVTFVIAGEGPPSKAQRTVLDSLPSSISSVFLPPVDLTDLSSSTRIESRISLTVTRSNPELRKVFDSFVEGGRLPTALVVDLFGTDAFDVAVEFHVPPYIFYPTTANVLSFFLHLPKLDETVSCEFRELTEPLMLPGCVPVAGKDFLDPAQDRKDDAYKWLLHNTKRYKEAEGILVNTFFELEPNAIKALQEPGLDKPPVYPVGPLVNIGKQEAKQTEESECLKWLDNQPLGSVLYVSFGSGGTLTCEQLNELALGLADSEQRFLWVIRSPSGIANSSYFDSHSQTDPLTFLPPGFLERTKKRGFVIPFWAPQAQVLAHPSTGGFLTHCGWNSTLESVVSGIPLIAWPLYAEQKMNAVLLSEDIRAALRPRAGDDGLVRREEVARVVKGLMEGEEGKGVRNKMKELKEAACRVLKDDGTSTKALSLVALKWKAHKKELEQNGNH,soluble
20,MESTSTTVPSIVVYVTVPNKEAGKRLAGSIISEKLAACVNIVPGIESVYWWEGKVQTDAEELLIIKTRESLLDALTEHVKANHEYDVPEVIALPIKGGNLKYLEWLKNSTRES,soluble
21,GSAQLLKSVFVKNVGWATQLTSGAVWVQFNDGSQLVMQAGVSSISYTSPDGQTTRYGENEKLPEYIKQKLQLLSSILLMFSNPTPVFQ,soluble
